Results published in the supplement of paper PMC12764529.
± gives the half width of the 95% confidence interval.

assay: folding stability dG unfold from trypsin proteolysis; higher = more stable
Method in brief: (§1)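 Unfolding free energy was derived, per protease or combined, by relating Bayesian-fitted K50 values from sequencing counts to a sequence-predicted unfolded-state K50 and a shared folded-state K50. The underlying digests exposed cysteine-free mini-proteins under 80 residues, in a PA-tagged cDNA display construct, to trypsin and chymotrypsin at 11 threefold-diluted concentrations and to a no-protease condition. A filter kept only designs with AlphaFold2 dimer inter-PAE above 15.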

Compared with “SAGGSAGGSAPPNVEIKLTMEPYKPPDGNKYYRIPIEVNKKPWQAKEIADWLQPEGFRIEPSAGGSAGGSAG [r3_157_TrROS]”, “SAGMVAEEARRRASPEELAAEEAPPRPPPPVTVVTVPREVAPEVLAALAAAEDVEVEERGDELVIRVVGSAG [r14_7_JUSTAS]” is lower in “folding stability dG unfold” value: 0.238 ± 0.18 kcal/mol for the first, -0.583 ± 0.39 kcal/mol for the second.

First: SAGGSVKVELKGDYLVITIPVEVPGDKDKPALLTIVIDLSPNGKPARIEMRSLETGKPLGEFTIDLSAGGSA [r2_412_TrMRF]
Second: SAGGSAGGSAGNKKAEEIKKILEEKGFEVVSVKVYKPKGNKPVVKIEVKAKNGKKFTILASAGGSAGGSAGG [r11_780_TrMRF]
The “folding stability dG unfold” value of the first is lower: 2.14 ± 0.099 kcal/mol for the first, 2.96 ± 0.2 kcal/mol for the second.

Compared with “SAMKLPPGVEAEVLEVTVDEEVTITIKLEDETVVIVNEKTGEVTVIKPGETVTITMKPGEKLRIIVIKPSAG [r14_385_TrROS_Hall]”, “SAGGSAGGRFRIKFKNGPVIEIDPNEPTIRFPDGSRRFPLNGDDAEEALEEFLSNGMKITEIEPSAGGSAGG [r6_340_TrROS]” is lower in “folding stability dG unfold” value: 3.2 ± 0.28 kcal/mol for the first, -0.149 ± 0.2 kcal/mol for the second.

Going from “SMTEELVIDFPDGVKATVRRFGDGEVTITIDWPTDNPELRKKGGIKALVDAIAKELGLDPSKVKVYTRNASA [r9_401_TrMRF]” to “SAGGSAGGNIDPDDITEVEEETYNFPNGWHIKIDYFRVPDDGQPIMKMEIEPMPPVKPDPNDKKSAGGSAGG [r6_758_TrROS]”, the “folding stability dG unfold” value falls from 3.05 ± 0.086 kcal/mol to -0.1 ± 0.11 kcal/mol.

Compared with “SIRPGQRIDSLEEVKEIAHRIAEEIQKEHGHPYKVTVNVEYYPEEDGRWYVKAKWYMPNNGKPIREITIMSA [r9_794_TrROS]”, “SAGMVKTEPDPNSDIVRRTFTVQVPVRIPPGEWRELTIEVPFDEVYGPGGVPVDPVSEEEIEAAIKALLSAG [r5_239_JUSTAS]” is lower in “folding stability dG unfold” value: 1.53 ± 0.059 kcal/mol for the first, 0.966 ± 0.037 kcal/mol for the second.

Compared with “SAMRIRIEVETRTGPDGRKYVVVRIRDEKTGEELELVFESREEAEEAAKALAEELKKAGYEIEVEIRPPSAG [r14_263_TrROS_Hall]”, “SAGGSAKEIKIEVVKVEYDKETKKVTVTLKIEVNGKKIEIKIEVDMTPEEVEEKVKKLAEELLKKLSAGGSA [r15_979_TrROS_Hall]” is lower in “folding stability dG unfold” value: 5.23 ± 0.47 kcal/mol for the first, 3.15 ± 0.2 kcal/mol for the second.

Compared with “SAGGSAGGSAGLKPGDEVLVISIEVETEIKLEEKDGKLTLETETKVKITITRVKLPEGAESAGGSAGGSAGG [r17_186_TrROS_Hall]”, “SAGGSAGGSAGGKPITIKLEETGETATIDEDNGIITITNKDGSKYQITFKDGKLIIKKISAGGSAGGSAGGS [r10_568_TrROS_Hall]” is lower in “folding stability dG unfold” value: 3.79 ± 0.22 kcal/mol for the first, 1.99 ± 0.076 kcal/mol for the second.

First: SAGGSAGGSAGSMEEALAAELRARGGVAVEIERIHVPSELAPGTKLPADEVLIRVTARPAASAGGSAGGSAG [r3_229_JUSTAS]
Second: SMTLPLLFVFPVNSPEELEKARKLAEEEVKELAEELGVKVKIEKVEYFVNPEGDYVLIRAYVTVTSPEEESA [r9_105_TrMRF]
The “folding stability dG unfold” value of the first is lower: -0.139 ± 0.46 kcal/mol for the first, 3.18 ± 0.054 kcal/mol for the second.

Going from “SAGGEERERIRRLVRELRRRGYKRITADELARLLGREITEEELEALREAGLIELEEEETVEVVLPEEESAGG [r13_188_TrROS_Hall]” to “SAGGSAGGSAGSTLTVTLTVRDPANPGTTTTVTLTLEVEPAPPPEVVVVKDANGNETLVPSAGGSAGGSAGG [r11_419_TrROS_Hall]”, the “folding stability dG unfold” value falls from 4.02 ± 0.16 kcal/mol to 1.29 ± 0.047 kcal/mol.

“SAEIAELLKELGFEVEVEKVEVKEVEVTVTDENGKKYKVKFVEVKITVKVTNPDGSKRTFSLDELKKLLSAG [r14_578_TrROS_Hall]” and “SAGDWYVVIEIKHPNGRTITFVLRFDSPDELKDEILDNMRDEYGGPPEDMPITDIRVEVFDPKTGKPIWSAG [r5_482_TrROS]” are within error of each other in “folding stability dG unfold” value: 2.84 ± 0.14 kcal/mol for the first, 2.65 ± 0.18 kcal/mol for the second.

First: SAGGSASVSPVTLPLEVAPDEEVEGTLTLTLPSGPTVTYTAEITEVSPDGTANPVVTIDDTPVVVESAGGSA [r15_844_JUSTAS]
Second: SAGGKKVVITLTAEELEELLKEGKPLTAEEIARRLLPPGAKVTVEVTYDPETKEVTVTVVIEVPEELESAGG [r13_862_TrROS_Hall]
The “folding stability dG unfold” value of the first is lower: 1.39 ± 0.053 kcal/mol for the first, 2.27 ± 0.13 kcal/mol for the second.

Compared with “SAGGSAGGSAGGSGMVEVVSPDLSPEELKERIRKELGDPSVKVEVTTLSDGTQLARVPASAGGSAGGSAGGS [r4_408_JUSTAS]”, “SAGGSAGGLTLRLELEIRLEDGLTLRVRVEYDLETNEVKIEIELLPPAPPVEEEPEVLVVEEEESAGGSAGG [r6_926_TrROS_Hall]” is higher in “folding stability dG unfold” value: -1.74 ± 0.72 kcal/mol for the first, 3 ± 0.29 kcal/mol for the second.

Going from “SAGGSAGGSAGDKGYVMVTFPIEMTQYVYDPDGKPIGQHKHEMPITVMIPPNAAKKLLQASAGGSAGGSAGG [r11_620_TrROS]” to “SAGGSAGGSAGKEKEIIIKVKVTKDKNGKYKIDIEELKKLFPNVKITEIKDNYIKIKVKKSAGGSAGGSAGG [r11_771_TrROS_Hall]”, the “folding stability dG unfold” value rises from 0.186 ± 0.067 kcal/mol to 1.63 ± 0.1 kcal/mol.

First: SAGGSAGGSAGGSTGITSTFFDPKTGTVTTTTLVPSTGTTTTTVTPVTIPGPAATTTLTSAGGSAGGSAGGS [r10_331_JUSTAS]
Second: SAGGSAGGKKYEVVSTIKDPATGETITVIKKDGKLIITITNKNGETKTIEITVKPGETITITAPSAGGSAGG [r6_379_TrROS_Hall]
The “folding stability dG unfold” value of the first is lower: 1.31 ± 0.067 kcal/mol for the first, 1.93 ± 0.077 kcal/mol for the second.

Compared with “SAGGSAGGSAGGSFTIASVETIRQPNGEILYRITLKFPDGTVEEVLEVPESEAGKVLSSLSAGGSAGGSAGG [r7_891_JUSTAS]”, “SAGGMEEVIEEAIEAAKKGENVTITLPASVDPEVVLKALEEASGLKVTPISVTPLPDGTLRIEVKIESAGGS [r16_318_JUSTAS]” is higher in “folding stability dG unfold” value: 3.23 ± 0.12 kcal/mol for the first, 4.24 ± 0.19 kcal/mol for the second.

In the case of “SAGGSAGGSAGGMTVTTEKAAPSPRQVTVTTVYDPSTGTSVTIVTLPDGSLKVIPSGTLSAGGSAGGSAGGS [r10_996_JUSTAS]”, the “folding stability dG unfold” value is reported as 0.193 ± 0.14 kcal/mol.

assay: folding stability dG unfold from chymotrypsin proteolysis; higher = more stable
Method in brief: as §1

“SAGGSAGGSAPPNVEIKLTMEPYKPPDGNKYYRIPIEVNKKPWQAKEIADWLQPEGFRIEPSAGGSAGGSAG [r3_157_TrROS]” and “SAGMVAEEARRRASPEELAAEEAPPRPPPPVTVVTVPREVAPEVLAALAAAEDVEVEERGDELVIRVVGSAG [r14_7_JUSTAS]” are within error of each other in “folding stability dG unfold” value: 0.152 ± 0.41 kcal/mol for the first, 0.559 ± 0.1 kcal/mol for the second.

Going from “SAGGSVKVELKGDYLVITIPVEVPGDKDKPALLTIVIDLSPNGKPARIEMRSLETGKPLGEFTIDLSAGGSA [r2_412_TrMRF]” to “SAGGSAGGSAGNKKAEEIKKILEEKGFEVVSVKVYKPKGNKPVVKIEVKAKNGKKFTILASAGGSAGGSAGG [r11_780_TrMRF]”, the “folding stability dG unfold” value rises from 2.63 ± 0.04 kcal/mol to 3.28 ± 0.039 kcal/mol.

Compared with “SAMKLPPGVEAEVLEVTVDEEVTITIKLEDETVVIVNEKTGEVTVIKPGETVTITMKPGEKLRIIVIKPSAG [r14_385_TrROS_Hall]”, “SAGGSAGGRFRIKFKNGPVIEIDPNEPTIRFPDGSRRFPLNGDDAEEALEEFLSNGMKITEIEPSAGGSAGG [r6_340_TrROS]” is lower in “folding stability dG unfold” value: 1.65 ± 0.047 kcal/mol for the first, 0.99 ± 0.14 kcal/mol for the second.

Going from “SMTEELVIDFPDGVKATVRRFGDGEVTITIDWPTDNPELRKKGGIKALVDAIAKELGLDPSKVKVYTRNASA [r9_401_TrMRF]” to “SAGGSAGGNIDPDDITEVEEETYNFPNGWHIKIDYFRVPDDGQPIMKMEIEPMPPVKPDPNDKKSAGGSAGG [r6_758_TrROS]”, the “folding stability dG unfold” value falls from 4.12 ± 0.087 kcal/mol to 1.23 ± 0.14 kcal/mol.

First: SIRPGQRIDSLEEVKEIAHRIAEEIQKEHGHPYKVTVNVEYYPEEDGRWYVKAKWYMPNNGKPIREITIMSA [r9_794_TrROS]
Second: SAGMVKTEPDPNSDIVRRTFTVQVPVRIPPGEWRELTIEVPFDEVYGPGGVPVDPVSEEEIEAAIKALLSAG [r5_239_JUSTAS]
The “folding stability dG unfold” value of the first is higher: 1.88 ± 0.1 kcal/mol for the first, 1.15 ± 0.087 kcal/mol for the second.

First: SAMRIRIEVETRTGPDGRKYVVVRIRDEKTGEELELVFESREEAEEAAKALAEELKKAGYEIEVEIRPPSAG [r14_263_TrROS_Hall]
Second: SAGGSAKEIKIEVVKVEYDKETKKVTVTLKIEVNGKKIEIKIEVDMTPEEVEEKVKKLAEELLKKLSAGGSA [r15_979_TrROS_Hall]
The “folding stability dG unfold” value of the first is higher: 5.21 ± 0.2 kcal/mol for the first, 3.03 ± 0.14 kcal/mol for the second.

“SAGGSAGGSAGLKPGDEVLVISIEVETEIKLEEKDGKLTLETETKVKITITRVKLPEGAESAGGSAGGSAGG [r17_186_TrROS_Hall]” and “SAGGSAGGSAGGKPITIKLEETGETATIDEDNGIITITNKDGSKYQITFKDGKLIIKKISAGGSAGGSAGGS [r10_568_TrROS_Hall]” are within error of each other in “folding stability dG unfold” value: 3.01 ± 0.21 kcal/mol for the first, 3.1 ± 0.056 kcal/mol for the second.

With “SAGGSAGGSAGSMEEALAAELRARGGVAVEIERIHVPSELAPGTKLPADEVLIRVTARPAASAGGSAGGSAG [r3_229_JUSTAS]” the “folding stability dG unfold” value was 0.683 ± 0.12 kcal/mol.
